One assay concerns the target Her-3 (Homo sapiens, UniProt P21860). The note with it: particularly for Her-3; cited from earlier work.
Assay [1] concerns HER5 cells. Briefly: Cell proliferation assay (WST-1), EGF dependent HER5 cells. The assay is classed as cell-based, mouse. The note with it: 48 hour proliferation, phage fusion or purified protein as labelled, read-out: Calculated cell proliferation (EC50). On the procedure: (§1) Phage-fusion particles displaying ligand variants were evaluated for their ability to stimulate cell proliferation in the cell proliferation assay described herein in both an EGF dependent cell line, HER5 and a heregulin dependent cell line, MCF-7.
The HER5 cell line, a murine fibroblast line (derived from the NR-6 line; mouse fibroblast cells that overexpress human EGFR) that has been stably transfected to express the human EGF receptor was provided by Dr. M. C. Hung (MD Anderson Cancer Center).
Stock cultures of HER5 were propagated in D-MEM/F12 medium containing 10% fetal bovine serum, 100 units/ml of penicillin and 100 ug/ml of streptomycin in a water-jacketed incubator at 37° C. in a humidified 5% CO2 atmosphere.
For HER5 proliferation assays, the cells were changed into DMEM/F12 without serum for 24 hours. Cells were then trypsinized and suspended at 1E5 cells/ml. Serial dilutions of EGF (PeproTech, Rocky Hill, N.J.), and HER ligand polypeptide variants were prepared in serum-free DMEM/F12 at 2-fold the final concentration and plated into the wells of 96-well plates. […] Cell proliferation was determined by addition of 10 ul/well of WST-1 Cell Proliferation Reagent (Roche Applied Sciences, Indianapolis, Ind.) for the last three hours of the proliferation period. […] The amount of formazan was measured at 450 nm using a microplate reader (Dynex Technologies) with MRX Revelation software.

For assay [2], the system named is MCF-7 cells. The note with it: stated as known; cited from earlier work.
In assay [3] the test system is HER5 cells. As to conditions: cited from earlier work.
In assay [4] the test system is MCF-7 cells. As to the kind of experiment: Cell proliferation assay (WST-1), heregulin dependent MCF-7 cells. The assay is classed as cell-based, human. As to conditions: 72 hours, phage fusion or purified protein as labelled, read-out: Calculated cell proliferation (EC50). On the procedure: as §1
MCF-7 cells (human breast cancer cell lines that express HER2 and HER3) were obtained from the American Type Culture Collection (ATCC). Stock cultures of MCF-7 were maintained in Eagle's MEM supplemented with 1% ITS-X (Invitrogen) and 10% fetal bovine serum.
For proliferation assays, MCF-7 cells were transferred to serum-free medium (SFM) for 24 hours and then trypsinized and suspended at 10^5 cells/mL in SFM. Fifty microliters of cell suspension (5000 cells) were plated per well in 96 well microtiter plates. Serial dilutions of HER ligands or mutant proteins were prepared at twice the final concentration in SFM and 50 ul was added to wells, bringing the final volume to 100 ul at the desired final concentration. Plates were incubated for 72 hours at 37 C in a humidified 5% CO2 atmosphere. Cell proliferation was determined by addition of 10 ul/well of WST-1 Cell Proliferation Reagent (Roche Applied Sciences, Indianapolis, Ind.) for the last three hours of the proliferation period.

These results are taken from patent US20090318350A1, “PAN-HER ANTAGONISTS AND METHODS OF USE” (priority 2006, published 2009).

Where a chain is given by its changes, count along the chain named. Names may count otherwise.

Sequence of Her-3 (P21860 20-1342): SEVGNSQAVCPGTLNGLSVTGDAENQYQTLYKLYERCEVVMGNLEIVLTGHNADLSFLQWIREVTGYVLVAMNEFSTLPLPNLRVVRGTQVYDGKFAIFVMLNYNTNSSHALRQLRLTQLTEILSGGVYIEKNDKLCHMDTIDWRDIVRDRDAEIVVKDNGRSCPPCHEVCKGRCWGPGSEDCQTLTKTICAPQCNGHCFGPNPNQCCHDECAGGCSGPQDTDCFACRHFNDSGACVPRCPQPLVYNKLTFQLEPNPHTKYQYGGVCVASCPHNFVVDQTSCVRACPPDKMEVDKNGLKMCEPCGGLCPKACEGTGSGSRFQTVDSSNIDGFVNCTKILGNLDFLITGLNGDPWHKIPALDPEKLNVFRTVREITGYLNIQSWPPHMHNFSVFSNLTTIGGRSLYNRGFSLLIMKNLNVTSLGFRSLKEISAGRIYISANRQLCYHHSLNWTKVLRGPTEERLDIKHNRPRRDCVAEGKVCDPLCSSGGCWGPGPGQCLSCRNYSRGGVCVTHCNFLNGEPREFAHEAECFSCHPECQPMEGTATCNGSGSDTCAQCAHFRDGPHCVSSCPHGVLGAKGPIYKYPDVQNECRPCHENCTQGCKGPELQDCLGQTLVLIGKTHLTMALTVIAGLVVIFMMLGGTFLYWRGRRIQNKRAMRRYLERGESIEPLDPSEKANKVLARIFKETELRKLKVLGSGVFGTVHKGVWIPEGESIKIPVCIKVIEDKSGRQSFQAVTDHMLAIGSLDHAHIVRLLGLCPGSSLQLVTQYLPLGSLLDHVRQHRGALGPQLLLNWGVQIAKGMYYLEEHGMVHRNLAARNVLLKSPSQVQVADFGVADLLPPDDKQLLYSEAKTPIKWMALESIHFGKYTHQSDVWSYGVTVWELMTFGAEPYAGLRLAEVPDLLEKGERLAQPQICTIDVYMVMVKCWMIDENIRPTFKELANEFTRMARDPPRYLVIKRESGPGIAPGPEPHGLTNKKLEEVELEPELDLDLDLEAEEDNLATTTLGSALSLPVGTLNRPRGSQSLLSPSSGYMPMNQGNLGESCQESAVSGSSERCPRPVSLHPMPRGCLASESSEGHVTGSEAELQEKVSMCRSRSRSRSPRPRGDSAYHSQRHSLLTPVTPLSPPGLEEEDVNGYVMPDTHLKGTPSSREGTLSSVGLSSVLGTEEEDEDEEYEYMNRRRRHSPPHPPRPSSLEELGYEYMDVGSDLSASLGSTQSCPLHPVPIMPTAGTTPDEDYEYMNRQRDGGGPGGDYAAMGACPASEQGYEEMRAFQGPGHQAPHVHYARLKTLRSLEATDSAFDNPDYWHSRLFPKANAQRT

B1: EGFwrs: EGF variant, residues 2 and 3 replaced with W and R, N-terminus NWRSE (protein)
chain: HHHHHHIEGRNWRSECPLSHDGYCLHDGVCMYIEALDKYACNCWGYIGERCQYRDLKWWELR
Take B1: the binding affinity entry in the assay with Her-3 is recorded as “high binding affinity”.

B2: EGF (purified protein): human epidermal growth factor, 53 amino acid cytokine (PeproTech) (protein)
chain: B1 chain with W12S, R13D
As to B2, in the assay on HER5 cells [1], the EC50 is 1.15 nM. For the same molecule, the “stimulation of MCF-7 cells” value in the assay with MCF-7 cells [2] is on record as “not”. Also, in the assay with HER5 cells [3] (stated as known), the “stimulation of HER5 cells” value is reported as “can be stimulated”.

B3: Heregulin (purified protein): heregulin, native HER3/HER4 ligand, purified protein (protein)
chain: SHLVKCAEKEKTFCVNGGECFMVKDLSNPSRYLCKCPNEFTGDRCQNYVMASFYKHLGIEFMEAEELY
On to B3, for which the “stimulation of MCF-7 cells” value in the assay with MCF-7 cells [2] is reported as “can be stimulated”. Besides, the EC50 with MCF-7 cells [4] is 6.15 nM.

B4: T1ER41D: T1E with arginine of position 41 replaced by aspartate (protein)
chain: VVSHFNDCPLSHDGYCLHDGVCMYIEALDKYACNCVVGYIGEDCQYRDLKWWELRAETVESCLAKPHTENSFTNVWKDDKTLDRYANYEGCLWNATGVVVCTGDETQCYGTWVPIGLAIPENEGGGSEGGGSEGGGSEGGGTKPPEYGDTPIPGYTYINPLDGTYPPGTEQNPANPNPSLEESQPLNTFMFQNNRFRNRQGALTVYTGTVTQGTDPVKTYYQYTPVSSKAMYDAYWNGKFRDCAFHSGFNEDPFVCEYQGQSSDLPQPPVNAGGGSGGGSGGGSEGGGSEGGGSEGGGSEGGGSGGGSGSGDFDYEKMANANKGAMTENADENALQSDAKGKLDSVATDYGAAIDGFIGDVSGLANGNGATGDFAGSNSQMAQVGDGDNSPLMNNFRQYLPSLPQSVECRPFVFSAGKPYEFSIDCDKINLFRGVFAFLLYVATFMYVFSTFANILRNKES
In the case of B4, the “stimulation of cell proliferation in EGFR-dependent HER5 cells” value with HER5 cells [3] (isolated ligand variants, previously demonstrated) was “greatly attenuated activity”.
